Measurements: paper PMC5096685, “Characterization of CgHIFα-Like, a Novel bHLH-PAS Transcription Factor Family Member, and Its Role under Hypoxia Stress in the Pacific Oyster Crassostrea gigas”

Tests used:
CgHIFα bHLH-PAS = biological target: T1, CgHIFα bHLH-PAS (Crassostrea gigas, UniProt B6ZGN4 1-356); test: EMSA; no ARNT added; positive control; unlabeled Ew 200x competes; anti-His supershift; 10 mM Tris pH 7.5, 50 mM KCl, 1 mM DTT, 50 ng poly(dI-dC) in 20 uL, 20 min at room temperature; conditions: protein: recombinant; tags: His (pET30a); label: biotin end label (probe)
T1 sequence: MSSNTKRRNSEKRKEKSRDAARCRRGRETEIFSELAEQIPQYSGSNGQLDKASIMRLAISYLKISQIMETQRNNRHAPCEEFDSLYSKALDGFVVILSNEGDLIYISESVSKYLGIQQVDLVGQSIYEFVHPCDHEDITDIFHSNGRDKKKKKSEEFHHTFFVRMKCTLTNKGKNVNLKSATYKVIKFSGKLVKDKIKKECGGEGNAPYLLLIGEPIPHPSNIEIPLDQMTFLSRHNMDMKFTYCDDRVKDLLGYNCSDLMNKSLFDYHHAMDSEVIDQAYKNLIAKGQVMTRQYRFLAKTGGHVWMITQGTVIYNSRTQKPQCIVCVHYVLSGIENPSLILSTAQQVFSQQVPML

[1] = biological target: T2, CgHIFα-like bHLH-PAS (CgHIFαlike-His) (Crassostrea gigas, UniProt A0A167QPK5 1-385); test: EMSA; no ARNT added; 1 ug protein, 20 fmol probe, 50 ng poly(dI-dC); unlabeled Ew 200x competes; anti-His supershift; 10 mM Tris pH 7.5, 50 mM KCl, 1 mM DTT, 50 ng poly(dI-dC) in 20 uL, 20 min at room temperature; conditions: protein: recombinant; tags: His (pET30a); label: biotin end label (probe)
T2 sequence: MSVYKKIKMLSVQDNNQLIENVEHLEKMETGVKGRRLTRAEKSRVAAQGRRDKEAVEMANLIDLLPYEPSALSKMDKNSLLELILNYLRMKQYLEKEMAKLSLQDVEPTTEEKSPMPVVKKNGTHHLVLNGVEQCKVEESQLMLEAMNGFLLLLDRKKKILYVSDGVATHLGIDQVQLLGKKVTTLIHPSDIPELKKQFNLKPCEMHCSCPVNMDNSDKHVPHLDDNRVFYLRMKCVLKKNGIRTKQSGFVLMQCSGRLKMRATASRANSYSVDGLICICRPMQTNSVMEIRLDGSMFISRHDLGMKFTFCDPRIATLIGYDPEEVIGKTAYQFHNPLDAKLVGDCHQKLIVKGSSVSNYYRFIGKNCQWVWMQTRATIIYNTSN

B1: Ew (human EPO HRE probe) (dsDNA)
DNA 1: GCCCTACGTGCTGTCTCA
DNA 2: TGAGACAGCACGTAGGGC
Does B1 bind (CgHIFα bHLH-PAS)?
Result: binds

Does B1 bind [1]?
Result: binds
